Measured values reported in patent US20070053894A1.

Legend:
[1] = target: Soluble human recombinant p97 (melanotransferrin) (human) (UniProt P08582); assay: SPR (BIAcore), p97 immobilised on CM5 chip, mAb injected at 0.05 µg/µl
[2] = target: endogenous membrane-bound p97 of HMEC-1 and SK-MEL28 cells (human) (UniProt P08582); assay: cell-based or functional assay
[3] = target: Soluble human recombinant p97 (melanotransferrin) (human) (UniProt P08582); assay: cell-based or functional assay
[4] = target: Soluble human recombinant p97 (melanotransferrin) (human) (UniProt P08582); assay: SPR (BIAcore), p97 immobilised on CM5 chip, mAb injected

Chain of Soluble human recombinant p97 (melanotransferrin) (human) (P08582 20-711 T431K): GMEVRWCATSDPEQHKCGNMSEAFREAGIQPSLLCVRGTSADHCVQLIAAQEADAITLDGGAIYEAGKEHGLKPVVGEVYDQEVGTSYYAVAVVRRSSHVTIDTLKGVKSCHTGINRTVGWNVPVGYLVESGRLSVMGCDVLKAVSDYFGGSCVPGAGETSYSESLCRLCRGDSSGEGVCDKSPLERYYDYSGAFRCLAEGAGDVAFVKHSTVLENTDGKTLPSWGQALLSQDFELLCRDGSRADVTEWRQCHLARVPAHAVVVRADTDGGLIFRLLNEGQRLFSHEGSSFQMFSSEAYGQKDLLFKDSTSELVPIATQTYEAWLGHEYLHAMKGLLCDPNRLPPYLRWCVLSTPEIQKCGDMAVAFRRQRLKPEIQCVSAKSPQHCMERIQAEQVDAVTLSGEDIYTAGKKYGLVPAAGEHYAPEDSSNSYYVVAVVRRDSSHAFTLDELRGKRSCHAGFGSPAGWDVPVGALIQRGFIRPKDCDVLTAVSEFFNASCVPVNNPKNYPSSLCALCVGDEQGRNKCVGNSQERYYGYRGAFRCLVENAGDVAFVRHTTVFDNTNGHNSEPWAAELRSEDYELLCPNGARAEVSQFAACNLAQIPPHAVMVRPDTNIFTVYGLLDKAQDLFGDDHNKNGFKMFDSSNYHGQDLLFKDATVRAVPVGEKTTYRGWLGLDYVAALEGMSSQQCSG
Chain of endogenous membrane-bound p97 of HMEC-1 and SK-MEL28 cells (human) (P08582 20-709): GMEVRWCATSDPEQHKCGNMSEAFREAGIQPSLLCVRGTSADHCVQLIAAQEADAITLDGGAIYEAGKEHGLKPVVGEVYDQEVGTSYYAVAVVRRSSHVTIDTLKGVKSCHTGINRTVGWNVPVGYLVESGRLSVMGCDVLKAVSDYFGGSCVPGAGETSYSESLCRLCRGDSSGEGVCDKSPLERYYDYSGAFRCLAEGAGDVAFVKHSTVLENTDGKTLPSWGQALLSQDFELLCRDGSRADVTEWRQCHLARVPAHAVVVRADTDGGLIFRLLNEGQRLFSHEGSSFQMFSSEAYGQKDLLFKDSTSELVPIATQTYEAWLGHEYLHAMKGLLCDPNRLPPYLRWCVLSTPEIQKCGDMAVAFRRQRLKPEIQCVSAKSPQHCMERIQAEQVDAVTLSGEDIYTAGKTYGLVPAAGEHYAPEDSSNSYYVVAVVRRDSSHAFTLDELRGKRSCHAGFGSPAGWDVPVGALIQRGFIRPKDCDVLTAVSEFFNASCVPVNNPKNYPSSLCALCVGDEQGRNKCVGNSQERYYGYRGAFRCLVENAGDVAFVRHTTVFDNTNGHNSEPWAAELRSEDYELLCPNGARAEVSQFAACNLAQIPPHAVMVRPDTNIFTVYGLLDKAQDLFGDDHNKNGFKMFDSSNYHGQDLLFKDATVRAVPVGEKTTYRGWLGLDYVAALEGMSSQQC

monoclonal antibody L235 directed against p97
ΔRU [1]: 1060 RU
inhibition of HMEC-1 cell migration by 50 nM mAb L235 (Boyden chamber) [2]: 54%
inhibition of SK-MEL28 cell migration by 50 nM mAb L235 (Boyden chamber) [2]: 48%
inhibition of plasminolytic activity of HMEC-1 cells by 250 nM mAb L235 [2]: > 50%
inhibition of the effect of soluble p97 on plasminogen activation by tPA [3]: 80%
inhibition of the pro-uPA activation induced by p97 (plasminolytic activity) [3]: 50%
Ka [4]: 9e+08 M⁻¹
Kd [4]: 1.2 nM
koff [4]: 5.3e-05 s⁻¹
kon [4]: 44000 M⁻¹ s⁻¹
